# Assay results as given in PMC13544220, “Glycemic and bodyweight effects of GIPR coding variation reflect differences in surface expression and intrinsic functional impairment” (Science Advances, 2026).
# Positions count from the first letter of the chain named. Names and notes keep the numbering of the source.
# B1: R136W (protein, UniProt P48546 22-466, looked up, variant R136W)
# Gastric inhibitory …: RAETGSKGQTAGELYQRWERYRRECQETLAAAEPPSGLACNGSFDMYVCWDYAAPNATARASCPWYLPWHHHVAAGFVLRQCGSDGQWGLWRDHTQCENPEKNEAFLDQRLILEWLQVMYTVGYSLSLATLLLALLILSLFRRLHCTRNYIHINLFTSFMLRAAAILSRDRLLPRPGPYLGDQALALWNQALAACRTAQIVTQYCVGANYTWLLVEGVYLHSLLVLVGGSEEGHFRYYLLLGWGAPALFVIPWVIVRYLYENTQCWERNEVKAIWWIIRTPILMTILINFLIFIRILGILLSKLRTRQMRCRDYRLRLARSTLTLVPLLGVHEVVFAPVTEEQARGALRFAKLGFEIFLSSFQGFLVSVLYCFINKEVQSEIRRGWHHCRLRRSLGEEQRQLPERAFRALPSGSGPGEVPTSRGLSSGTLPGPGNEASRELESYC
# B2: L100F (protein, UniProt P48546 22-466, looked up, variant L100F)
# Gastric inhibitory …: B1 Gastric inhibitory … with L79F, W115R
# Tests used:
# Assay type in all cases: cell-based, human
# [1] = system: wild-type and variant SNAP-GIPR; assay: Single-concentration GIP cAMP response by HTRF in INS-1 cells; details: Fig S3E, mean
# Procedure: (§1) All variants were tested in parallel on each occasion to control for transfection efficiency differences between experiments.
# [2] = system: wild-type and variant SNAP-GIPR; assay: Surface SNAP-GIPR expression (SNAP-tag labelling) in INS-1 cells; details: Fig 4G; Mean
# How it was run: (§2)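 Surface GIPR is quantified from wide-field images after labelling intact transfected cells with a membrane-impermeant SNAP probe at 500 nM for 10 min at room temperature. Specific signal, corrected for nontransfected cells, is normalized to the experiment-wide average or to wild-type.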
# [3] = system: wild-type and variant SNAP-GIPR; assay: Surface SNAP-GIPR expression (SNAP-tag labelling) in AD293 cells; details: for AD293 Surface: Fig S3E, mean; for Surface SNAP-GIPR expression: sheet Fig 1C;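 as to all read-outs here: scaled to the experimental average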
# How it was run: as §2
# [4] = system: wild-type and variant SNAP-GIPR; assay: Constitutive and agonist-mediated internalization, reversible SNAP-tag labelling, INS-1 cells; set-up: key to Internalisation, GIP-only / Internalisation, Vehicle / Internalisation, +GIP: % internalization: residual fluorescence after Mesna vs pre-Mesna; details: Mean; for +GIP internalisation (100 nM) / GIP-specific internalisation (100 nM) / Constitutive internalisation (100 nM): Fig 4G; for +GIP internalisation (100 nM) / GIP-specific internalisation (100 nM): GIP 100 nM; for Internalisation, +GIP / Internalisation, GIP-only / Internalisation, Vehicle: Fig S4C, INS-1
# How it was run: (§3)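 Surface SNAP-GIPR signal removable by Mesna was tracked by imaging before and 10 min after treatment in pH 8.6 TNE buffer. Internalization is the Mesna-resistant share of specific fluorescence.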
# [5] = system: wild-type and variant SNAP-GIPR; assay: Constitutive and agonist-mediated internalization, reversible SNAP-tag labelling, AD293 cells; set-up: key to Internalisation, Vehicle / Internalisation, +GIP / Internalisation, GIP-only: % internalization: residual fluorescence after Mesna vs pre-Mesna; Surface expression: unit not given here; details: Mean; for +GIP internalisation (100 nM) / GIP-specific internalisation (100 nM) / Constitutive internalisation (100 nM) / Surface expression: Fig 4E; for +GIP internalisation (100 nM) / GIP-specific internalisation (100 nM): GIP 100 nM; for Internalisation, +GIP / Internalisation, GIP-only / Internalisation, Vehicle: Fig S4C, AD293
# How it was run: as §3
# [6] = system: wild-type and variant SNAP-GIPR; assay: Single-concentration GIP cAMP response by HTRF in AD293 cells; details: Fig S3F, HTRF, mean;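 also: ratio to experiment-wide average response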
# Procedure: as §1
# [7] = system: wild-type and variant SNAP-GIPR; assay: cADDis cAMP imaging in AD293 cells, ensemble, expression-matched and per decile; details: Fig S3F, cADDis, mean;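 also: Ensemble cells as % of IBMX/FSK response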
# How it was run: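 Variants and wild type ran in parallel in transfected AD293 cells carrying cADDis. Single-cell sensor intensity, with nonresponders to IBMX/FSK removed, was paired with SNAP-Surface 647 labeling to allow expression-matched analysis.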
# [8] = column repeated, paired with cAMP 100 nM
molecule,measurement,setting,value
B1,INS-1 cAMP (100 nM),[1],1.164
same,Surface expression,[2],1.406
same,AD293 Surface,[3]; [8],1.539
same,AD293 Surface,[3]; paired with cAMP 100 pM,1.539
same,Surface SNAP-GIPR expression,[3]; replicate 1,1.301
same,Surface SNAP-GIPR expression,[3]; replicate 2,1.896
same,Surface SNAP-GIPR expression,[3]; replicate 3,1.558
same,Surface SNAP-GIPR expression,[3]; replicate 4,1.426
same,Surface SNAP-GIPR expression,[3]; replicate 5,1.728
same,Surface SNAP-GIPR expression,[3]; replicate 6,1.162
same,Surface SNAP-GIPR expression,[3]; replicate 7,1.369
same,Surface SNAP-GIPR expression,[3]; replicate 8,1.722
same,Surface SNAP-GIPR expression,[3]; replicate 9,1.795
same,Surface SNAP-GIPR expression,[3]; replicate 10,1.62
same,Surface SNAP-GIPR expression,[3]; replicate 11,1.44
same,Surface SNAP-GIPR expression,[3]; replicate 12,1.625
same,Surface SNAP-GIPR expression,[3]; replicate 13,1.681
same,Surface SNAP-GIPR expression,[3]; replicate 14,1.394
same,Surface SNAP-GIPR expression,[3]; replicate 15,1.54
same,Surface SNAP-GIPR expression,[3]; replicate 16,1.63
same,Surface SNAP-GIPR expression,[3]; replicate 17,1.488
same,Surface SNAP-GIPR expression,[3]; replicate 18,1.722
same,Surface SNAP-GIPR expression,[3]; replicate 19,2.073
same,Surface SNAP-GIPR expression,[3]; replicate 20,1.443
same,Surface SNAP-GIPR expression,[3]; replicate 21,1.607
same,Surface SNAP-GIPR expression,[3]; replicate 22,1.548
same,Surface SNAP-GIPR expression,[3]; replicate 23,1.562
same,Surface SNAP-GIPR expression,[3]; replicate 24,1.636
same,Surface SNAP-GIPR expression,[3]; replicate 25,1.259
same,Surface SNAP-GIPR expression,[3]; replicate 26,1.57
same,Surface SNAP-GIPR expression,[3]; replicate 27,1.295
same,Surface SNAP-GIPR expression,[3]; replicate 28,1.198
same,Surface SNAP-GIPR expression,[3]; replicate 29,1.582
same,Surface SNAP-GIPR expression,[3]; replicate 30,1.517
same,Surface SNAP-GIPR expression,[3]; replicate 31,1.447
same,Surface SNAP-GIPR expression,[3]; replicate 32,1.457
same,Surface SNAP-GIPR expression,[3]; replicate 33,1.855
same,Surface SNAP-GIPR expression,[3]; replicate 34,1.376
same,Surface SNAP-GIPR expression,[3]; replicate 35,1.615
same,Surface SNAP-GIPR expression,[3]; replicate 36,1.418
same,Surface SNAP-GIPR expression,[3]; replicate 37,1.346
same,Surface SNAP-GIPR expression,[3]; replicate 38,1.685
same,Surface SNAP-GIPR expression,[3]; replicate 39,1.551
same,Surface SNAP-GIPR expression,[3]; replicate 40,1.483
same,Surface SNAP-GIPR expression,[3]; replicate 41,1.492
same,+GIP internalisation (100 nM),[4],0.6838
same,GIP-specific internalisation (100 nM),[4],0.1408
same,Constitutive internalisation (100 nM),[4],0.543
same,"Internalisation, +GIP",[4],46.5117
same,"Internalisation, GIP-only",[4],9.467
same,"Internalisation, Vehicle",[4],37.045
same,+GIP internalisation (100 nM),[5],0.7747
same,GIP-specific internalisation (100 nM),[5],0.1529
same,Constitutive internalisation (100 nM),[5],0.6218
same,Surface expression,[5],1.49
same,"Internalisation, +GIP",[5],52.0458
same,"Internalisation, GIP-only",[5],10.2879
same,"Internalisation, Vehicle",[5],41.7579
same,AD293 100 pM HTRF,[6],0.0806
same,AD293 100 nM HTRF,[6],1.324
same,AD293 100 pM cADDis,[7],19.5296
same,AD293 100 nM cADDis,[7],38.38
B2,INS-1 cAMP (100 nM),[1],1.416
same,Surface expression,[2],1.643
same,AD293 Surface,[3]; [8],1.501
same,AD293 Surface,[3]; paired with cAMP 100 pM,1.501
same,Surface SNAP-GIPR expression,[3]; replicate 1,1.524
same,Surface SNAP-GIPR expression,[3]; replicate 2,1.675
same,Surface SNAP-GIPR expression,[3]; replicate 3,1.679
same,Surface SNAP-GIPR expression,[3]; replicate 4,1.13
same,Surface SNAP-GIPR expression,[3]; replicate 5,1.597
same,Surface SNAP-GIPR expression,[3]; replicate 6,1.532
same,Surface SNAP-GIPR expression,[3]; replicate 7,1.271
same,Surface SNAP-GIPR expression,[3]; replicate 8,1.313
same,Surface SNAP-GIPR expression,[3]; replicate 9,1.282
same,Surface SNAP-GIPR expression,[3]; replicate 10,1.519
same,Surface SNAP-GIPR expression,[3]; replicate 11,1.303
same,Surface SNAP-GIPR expression,[3]; replicate 12,1.295
same,Surface SNAP-GIPR expression,[3]; replicate 13,1.669
same,Surface SNAP-GIPR expression,[3]; replicate 14,1.299
same,Surface SNAP-GIPR expression,[3]; replicate 15,1.522
same,Surface SNAP-GIPR expression,[3]; replicate 16,1.442
same,Surface SNAP-GIPR expression,[3]; replicate 17,1.643
same,Surface SNAP-GIPR expression,[3]; replicate 18,1.736
same,Surface SNAP-GIPR expression,[3]; replicate 19,1.668
same,Surface SNAP-GIPR expression,[3]; replicate 20,1.712
same,Surface SNAP-GIPR expression,[3]; replicate 21,1.622
same,Surface SNAP-GIPR expression,[3]; replicate 22,1.675
same,Surface SNAP-GIPR expression,[3]; replicate 23,1.531
same,Surface SNAP-GIPR expression,[3]; replicate 24,1.559
same,Surface SNAP-GIPR expression,[3]; replicate 25,1.328
same,Surface SNAP-GIPR expression,[3]; replicate 26,1.878
same,Surface SNAP-GIPR expression,[3]; replicate 27,1.259
same,Surface SNAP-GIPR expression,[3]; replicate 28,1.697
same,Surface SNAP-GIPR expression,[3]; replicate 29,1.401
same,Surface SNAP-GIPR expression,[3]; replicate 30,1.456
same,Surface SNAP-GIPR expression,[3]; replicate 31,1.661
same,Surface SNAP-GIPR expression,[3]; replicate 32,1.58
same,Surface SNAP-GIPR expression,[3]; replicate 33,1.459
same,Surface SNAP-GIPR expression,[3]; replicate 34,1.249
same,Surface SNAP-GIPR expression,[3]; replicate 35,1.682
same,Surface SNAP-GIPR expression,[3]; replicate 36,1.611
same,Surface SNAP-GIPR expression,[3]; replicate 37,1.381
same,Surface SNAP-GIPR expression,[3]; replicate 38,1.301
same,Surface SNAP-GIPR expression,[3]; replicate 39,1.418
same,Surface SNAP-GIPR expression,[3]; replicate 40,1.406
same,Surface SNAP-GIPR expression,[3]; replicate 41,1.553
same,+GIP internalisation (100 nM),[4],0.7901
same,GIP-specific internalisation (100 nM),[4],0.1883
same,Constitutive internalisation (100 nM),[4],0.6018
same,"Internalisation, +GIP",[4],47.6567
same,"Internalisation, GIP-only",[4],11.2267
same,"Internalisation, Vehicle",[4],36.43
same,+GIP internalisation (100 nM),[5],0.8469
same,GIP-specific internalisation (100 nM),[5],0.2452
same,Constitutive internalisation (100 nM),[5],0.6017
same,Surface expression,[5],1.442
same,"Internalisation, +GIP",[5],58.6424
same,"Internalisation, GIP-only",[5],16.9646
same,"Internalisation, Vehicle",[5],41.6779
same,AD293 100 pM HTRF,[6],1.607
same,AD293 100 nM HTRF,[6],1.598
same,AD293 100 pM cADDis,[7],37.4091
same,AD293 100 nM cADDis,[7],36.85
